± gives the standard deviation of the averaged measurements.
B1: library; a variant is named by its letters at N, in order (parent)
chain: GCUGUCACCGAGAAACUGUGAAGUAUAUCUUAAACCUGGGCACUUAAAAGAUAUAUGGAGUUAGUAGUGCAACCUGCUCGGUCUGAUGAGUCCNNNNNNGGACGAAACAGC

Tests used:
cyclic di-GMP [1] = variants of: B1; test: normalized RNA/DNA level without ligand (relative to sTRSVctl = 100) (log10 (% of sTRSVctl)); HEK293T; ligand: cyclic di-GMP (c-di-GMP-II aptamer); higher = less ribozyme self-cleavage, higher mRNA level; details: reporter: mCherry (pCS4076), ligand present: no
Procedure, shortened: (§1)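 Ribozyme switch library plasmids linked to reporters were introduced into HEK293T cells at 4 µg per 6-well well, with ligand, if any, added 1 h before. Total RNA was extracted with EDTA 72 h later, reverse-transcribed, amplified, barcoded and sequenced. RNA level was computed from RNA over DNA reads relative to a spiked-in non-cleaving sequence or the top sequences, then scaled and log-transformed. The top set was 25 sequences, values were ×100 and log10, and the cutoff was ≥100 DNA reads.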

cyclic di-GMP [2] = variants of: B1; test: normalized RNA/DNA level with ligand (relative to sTRSVctl = 100) (log10 (% of sTRSVctl)); HEK293T; ligand: cyclic di-GMP (c-di-GMP-II aptamer); ligand concentration (+) RNA-Seq: 1 mM; higher = less ribozyme self-cleavage, higher mRNA level; details: reporter: mCherry (pCS4076), ligand present: yes
Procedure, shortened: as §1

Variant | normalized RNA/DNA level without ligand (log10) (cyclic di-GMP [1]) | normalized RNA/DNA level with ligand (log10) (cyclic di-GMP [2])
GCUGUCACCGAGAAACUGUGAAGUAUAUCUUAAACCUGGGCACUUAAAAGAUAUAUGGAGUUAGUAGUGCAACCUGCUCGGUCUGAUGAGUCCACGUAGGGACGAAACAGC | 1.55 ± 0.021 | 1.72 ± 0.14
GCUGUCACCGAGAAACUGUGAAGUAUAUCUUAAACCUGGGCACUUAAAAGAUAUAUGGAGUUAGUAGUGCAACCUGCUCGGUCUGAUGAGUCCACGUACGGACGAAACAGC | 1.58 ± 0.053 | 1.78 ± 0.077
GCUGUCACCGAGAAACUGUGAAGUAUAUCUUAAACCUGGGCACUUAAAAGAUAUAUGGAGUUAGUAGUGCAACCUGCUCGGUCUGAUGAGUCCUCGGUGGGACGAAACAGC | 1.68 ± 0.049 | 1.78 ± 0.13
GCUGUCACCGAGAAACUGUGAAGUAUAUCUUAAACCUGGGCACUUAAAAGAUAUAUGGAGUUAGUAGUGCAACCUGCUCGGUCUGAUGAGUCCUCGGUUGGACGAAACAGC | 1.61 ± 0.093 | 1.79 ± 0.082
GCUGUCACCGAGAAACUGUGAAGUAUAUCUUAAACCUGGGCACUUAAAAGAUAUAUGGAGUUAGUAGUGCAACCUGCUCGGUCUGAUGAGUCCCCGUACGGACGAAACAGC | 1.62 ± 0.027 | 1.75 ± 0.11
GCUGUCACCGAGAAACUGUGAAGUAUAUCUUAAACCUGGGCACUUAAAAGAUAUAUGGAGUUAGUAGUGCAACCUGCUCGGUCUGAUGAGUCCCCGUAGGGACGAAACAGC | 1.32 ± 0.11 | 1.55 ± 0.14
GCUGUCACCGAGAAACUGUGAAGUAUAUCUUAAACCUGGGCACUUAAAAGAUAUAUGGAGUUAGUAGUGCAACCUGCUCGGUCUGAUGAGUCCGCGGUGGGACGAAACAGC | 1.6984 ± 0.00046 | 1.79 ± 0.13
GCUGUCACCGAGAAACUGUGAAGUAUAUCUUAAACCUGGGCACUUAAAAGAUAUAUGGAGUUAGUAGUGCAACCUGCUCGGUCUGAUGAGUCCACGGUGGGACGAAACAGC | 1.6002 ± 0.00028 | 1.74 ± 0.1
GCUGUCACCGAGAAACUGUGAAGUAUAUCUUAAACCUGGGCACUUAAAAGAUAUAUGGAGUUAGUAGUGCAACCUGCUCGGUCUGAUGAGUCCGCGUACGGACGAAACAGC | 1.34 ± 0.086 | 1.52 ± 0.12
GCUGUCACCGAGAAACUGUGAAGUAUAUCUUAAACCUGGGCACUUAAAAGAUAUAUGGAGUUAGUAGUGCAACCUGCUCGGUCUGAUGAGUCCGCGUAAGGACGAAACAGC | 1.44 ± 0.091 | 1.61 ± 0.096
GCUGUCACCGAGAAACUGUGAAGUAUAUCUUAAACCUGGGCACUUAAAAGAUAUAUGGAGUUAGUAGUGCAACCUGCUCGGUCUGAUGAGUCCUCGUAGGGACGAAACAGC | 1.63 ± 0.059 | 1.82 ± 0.11
GCUGUCACCGAGAAACUGUGAAGUAUAUCUUAAACCUGGGCACUUAAAAGAUAUAUGGAGUUAGUAGUGCAACCUGCUCGGUCUGAUGAGUCCUCGUAUGGACGAAACAGC | 1.53 ± 0.068 | 1.76 ± 0.12
GCUGUCACCGAGAAACUGUGAAGUAUAUCUUAAACCUGGGCACUUAAAAGAUAUAUGGAGUUAGUAGUGCAACCUGCUCGGUCUGAUGAGUCCUCGUAAGGACGAAACAGC | 1.44 ± 0.1 | 1.64 ± 0.15
